From publication PMC7732191 (Science Advances, 2020)

Target: the molecule itself
Test: cryo-EM structure

B1: full-length human KCC2a (potassium-chloride cotransporter 2, SLC12A5) (natural protein, UniProt Q9H2X9-1 1-1139, looked up)
chain: MSRRFTVTSLPPAGPARSPDPESRRHSVADPRHLPGEDVKGDGNPKESSPFINSTDTEKGKEYDGKNMALFEEEMDTSPMVSSLLSGLANYTNLPQGSREHEEAENNEGGKKKPVQAPRMGTFMGVYLPCLQNIFGVILFLRLTWVVGIAGIMESFCMVFICCSCTMLTAISMSAIATNGVVPAGGSYYMISRSLGPEFGGAVGLCFYLGTTFAGAMYILGTIEILLAYLFPAMAIFKAEDASGEAAAMLNNMRVYGTCVLTCMATVVFVGVKYVNKFALVFLGCVILSILAIYAGVIKSAFDPPNFPICLLGNRTLSRHGFDVCAKLAWEGNETVTTRLWGLFCSSRFLNATCDEYFTRNNVTEIQGIPGAASGLIKENLWSSYLTKGVIVERSGMTSVGLADGTPIDMDHPYVFSDMTSYFTLLVGIYFPSVTGIMAGSNRSGDLRDAQKSIPTGTILAIATTSAVYISSVVLFGACIEGVVLRDKFGEAVNGNLVVGTLAWPSPWVIVIGSFFSTCGAGLQSLTGAPRLLQAISRDGIVPFLQVFGHGKANGEPTWALLLTACICEIGILIASLDEVAPILSMFFLMCYMFVNLACAVQTLLRTPNWRPRFRYYHWTLSFLGMSLCLALMFICSWYYALVAMLIAGLIYKYIEYRGAEKEWGDGIRGLSLSAARYALLRLEEGPPHTKNWRPQLLVLVRVDQDQNVVHPQLLSLTSQLKAGKGLTIVGSVLEGTFLENHPQAQRAEESIRRLMEAEKVKGFCQVVISSNLRDGVSHLIQSGGLGGLQHNTVLVGWPRNWRQKEDHQTWRNFIELVRETTAGHLALLVTKNVSMFPGNPERFSEGSIDVWWIVHDGGMLMLLPFLLRHHKVWRKCKMRIFTVAQMDDNSIQMKKDLTTFLYHLRITAEVEVVEMHESDISAYTYEKTLVMEQRSQILKQMHLTKNEREREIQSITDESRGSIRRKNPANTRLRLNVPEETAGDSEEKPEEEVQLIHDQSAPSCPSSSPSPGEEPEGEGETDPEKVHLTWTKDKSVAEKNKGPSPVSSEGIKDFFSMKPEWENLNQSNVRRMHTAVRLNEVIVKKSRDAKLVLLNMPGPPRNRNGDENYMEFLEVLTEHLDRVMLVRGGGREVITIYS
modifications: N-acetylglucosamine (glycosylation) at multiple Asn residues of the ECD
B1 was tested, and the “stoichiometry N” value was 2.
